# Experimental data as given in US20100286027A1, “ANTI-BACTERIAL COMPOSITIONS” (priority 2008, published 2010).
# B1: Nod2: purified recombinant LRR domain of Nod2 expressed in E. coli; human NOD2-LRR is SEQ ID NO: 3; ~30000 da (protein, listed as Homo sapiens)
# chain: PAAPGEAKSVHAMPGFIWLIRSLYEMQEERLARKAARGLNVGHLKLTFCSVGPTECAALAFVLQHLRRPVALQLDYNSVGDIGVEQLLPCLGVCKALYLRDNNISDRGICKLIECALHCEQLQKLALFNNKLTDGCAHSMAKLLACRQNFLALRLGNNYITAAGAQVLAEGLRGNTSLQFLGFWGNRVGDEGAQALAEALGDHQSLRWLSLVGNNIGSVGAQALALMLAKNVMLEELCLEENHLQDEGVCSLAEGLKKNSSLKILKLSNNCITYLGAEALLQALERNDTILEVWLRGNTFSLEEVDKLGCRDTRLLL
# notes: purified recombinant LRR domain of Nod2 expressed in E. coli; ~30000 da
# Assays:
# [1] = tested on: Prevotella intermedia NB88001; experiment: MIC against anaerobic bacteria; type: cell-based
# [2] = tested on: Peptostreptococcus anaerobius NB97001; experiment: MIC against anaerobic bacteria; type: cell-based
# P. aeruginosa NB52019 = experiment: MIC against aerobic gram negative bacteria; type: cell-based, Pseudomonas aeruginosa
# Staphylococcus aureus = experiment: Competition assay of Nod2 LRR activity against S. aureus; type: cell-based; settings: then live S. aureus
# Experimental: FIG. 6: Purified Nod2 LRR domains (Nod2: 30 microgram/ml) were preincubated with 200 microgram/ml of the indicated bacterial component prior to addition to Staphylococcus aureus. BSA was added as a protein control. Commercial […] extracts (sPGN: soluble […], iPGN: insoluble proteoglycan), lipoteichoic acid (LTA: crude lipoteichoic acid extract, upLTA: ultrapure lipoteichoic acid extract), or heat-killed S. aureus (HKSA) were used. Control indicates bacterial growth in the presence of BSA only.
# If this interaction was the initiating factor for the Nod2 LRR antimicrobial effects, preincubating the domains with bacterial components containing this motif would be expected to inhibit the antibacterial activity. A competition assay was set up using Nod2 LRR activity against S. aureus. The recombinant LRR domains or BSA (control) were preincubated with various components of the S. aureus membrane prior to addition to live S. aureus and the bacterial viability assessed as in Table 1 above (FIG. 6).
# S. aureus = experiment: Bacterial growth inhibition (FIG. 14, FIG. 16); type: cell-based, Staphylococcus aureus
# Experimental: Values shown are relative to controls incubated in the absence of LRR domains (100%).
# This inhibition was unaffected by the co-administration of MDP, LPS, or PGN.
# [3] = tested on: Staphylococcus aureus (29213); experiment: BacTiter-Glo bacterial ATP content viability assay
# Escherichia coli (8739) = experiment: BacTiter-Glo bacterial ATP content viability assay; settings: gram −, +/− SD, n = 3, >100 = activity detected but <50% inhibition
# E. coli = experiment: Membrane polarity, DiBAC4 uptake by flow cytometry; settings: FIG. 11 Panel A; 5×10^5 bacteria in 100 μL, 2 hours at 37° C.
molecule,measurement,setting,value
B1,minimal inhibitory concentration (MIC),[1],4 microgram/ml
same,minimal inhibitory concentration (MIC),[2],2 microgram/ml
same,minimal inhibitory concentration (MIC),P. aeruginosa NB52019,>128 microgram/ml
same,inhibition of antibacterial effect by preincubation with heat-killed S. aureus,Staphylococcus aureus; Nod2 30 microgram/ml preincubated with 200 microgram/ml HKSA,Only heat-killed S. aureus was capable of inhibiting
same,inhibition of antibacterial effect by preincubation with proteoglycan or lipoteichoic acid,Staphylococcus aureus; Nod2 30 microgram/ml preincubated with 200 microgram/ml bacterial component,"Neither S. aureus proteoglycan containing the MDP motif, nor lipoteichoic acid inhibited"
same,growth of S. aureus,"S. aureus; FIG. 14 Panel B, increasing concentrations, relative to controls (100%)",inhibits the growth
same,"effect of co-administration of MDP, LPS, or PGN on inhibition of S. aureus growth",S. aureus; FIG. 16,unaffected
same,growth of S. aureus,S. aureus; FIG. 16,inhibited the growth
same,antibacterial activity on S. aureus viability under bacterial stress,"[3]; FIG. 13, ATP-coupled luminescent assay at 35° C., 37° C. and 39° C.",increased with bacterial stress
same,"antibacterial activity by bacterial ATP content (IC50), [LRR domain]","[3]; Staphylococcus aureus (29213), gram +, +/− SD, n = 3, >100 = activity detected but <50% inhibition",6.0 +/− 4.0 microgram/ml
same,"antibacterial activity by bacterial ATP content (IC50), [LRR domain]",Escherichia coli (8739),>100 microgram/ml
same,membrane polarity of E. coli (depolarised bacteria taking up DiBAC4),E. coli,influence
